Experimental data taken from the supplement of paper PMC9170038.

System: MS2 coat protein
Assay: apparent KD of MS2 coat protein; designed switch direction (-1 OFF switch, 1 ON switch): 1; higher = weaker reporter binding
How it was run: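 Normalised cluster fluorescence was curve-fitted, and each design's median over clusters is its apparent KD. Before this, SNAP-549-labelled MS2 coat protein was titrated from 0.7 or 1.5 nM, doubling to 3 µM, over RNA switches transcribed on Illumina chips by stalled E. coli RNA polymerase. Titrations had no input, 200 uM small-molecule ligand, or an oligonucleotide input, and steps lasted 0.8–1.5 h (lowest) to 10–20 min (highest).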

[1] = input ligand: microRNA oligo, concentration not stated
[2] = Eterna round: R95, input ligand: FMN 200 uM
[3] = Eterna round: R95, input ligand: microRNA oligo, concentration not stated
[4] = Eterna round: R95, input ligand: none

Sequence | apparent KD of MS2 coat protein (input ligand: FMN 200 uM) [nM] | apparent KD of MS2 coat protein [1] [nM] | apparent KD of MS2 coat protein (input ligand: none) [nM] | apparent KD of MS2 coat protein [2] [nM] | apparent KD of MS2 coat protein [3] [nM] | apparent KD of MS2 coat protein [4] [nM]
AUCCCAUCGGGAGGAUAUGGAACCUUAUUGGUUCCAGAAGGUCCAACAUGAGGAUCACCCAUGUGGGAGUGGUCUAAUGACCAC [Fiskers NG1ss - 29] (Eterna round: R96, puzzle: Same State NG 1) | 222 | 272 | 470 |  |  | 
GUUACAUGAGGAUCACCCAUGUAUGUGUGGGAGUAAGUGUCUUAGGAUAUCUAUUAUUUUAAUUAAGAGAAGGAAGAUUGUUGU [JMF's solution 20] (Eterna round: R96, puzzle: Same State NG 3) | 98.6 | 113 | 122 |  |  | 
GGUAGGUUACUACCAAACAUGAGGAUCACCCAUGUUGAUGGGAAGGAUAUGGUACCUUUUAGGUACCAGAAGGUCUAAUCGAUC [NGss mod of JL's mod of Fisker 4] (Eterna round: R96, puzzle: Same State NG 3) | 120 | 115 | 166 |  |  | 
UGAAUAGUGAUAGGAUAUACAUGAGGAAUCCUCGUAGAAGGAUCACGACAUGAGGAUCACCCAUGUAGCCGUCCGUAGACGGCA [Mat - Same State NG 1 - JL mod - D59] (Eterna round: R96, puzzle: Same State NG 1) | 353 | 66.4 | 231 |  |  | 
CGGGACAGACCCAACAUGAGGAUCACCCAUGUCCUCGCAGGUCAGGAUAUUAUUAGGAUCACCAGUGAGAAGGGACGGUGAACC (Eterna round: R96, puzzle: Same State NG 3) | 470 | 281 | 373 |  |  | 
GCUCGAUGAUAGGCCUACAUGAGGAUCACCCAUGUGACUGGGCAGGAUAUCUAAAUGCAGAAUGUAGAGAAGGGCCCGUCGAGC [SameState NG3 #52] (Eterna round: R96, puzzle: Same State NG 3) | 269 | 69.5 | 409 |  |  | 
AAAAUGCGGGAAGGAUAUGGGAAAGGAAGUGUACCAGAAGGUCUCGCGGCCAAGGACAUGAGGAUCACCCAUGUUAACGCCCGA [PowerStrip SSNG 1.8] (Eterna round: R96, puzzle: Same State NG 1) | 204 | 43.4 | 40.8 |  |  | 
UAGAGAGGAAGCGAGGAUAUCGUGUGAGGUACAUGAGGAUCACCCAUGUUUGAUGUUGAGAGAGGCGAGAAGGCGCAGGAGAUAA [JR_SS2_Sub085] (puzzle: Same State 2) |  |  |  | 31.9 | 32.4 | 34.1
AGUCCAGCCUGAGCUGGACAAAAGCAUGUACAUGAGGAUCACCCAUGUCAUGUACAAGCUUUUUGCUAGUCUUAAAA [Mat - hsa-mir-208a - Mod of JL - D12] (puzzle: Sensor for hsa-mir-208a) |  |  |  | 413 | 13.7 | 551
GCUAGUAUUAUUGCUAACAUGAGGAUCACCCAUGUAUGUUGGCAGGAUAUCGUUUGCUUUGCAAACGAGAAGGGCUAAACUAGC [JL SSNG3 1.05] (Eterna round: R96, puzzle: Same State NG 3) | 25.8 | 65.4 | 71.7 |  |  | 
GUUAGGAAUCUAGCAAACAUGAGGAUCACCCAUGUAAGUGGGAAGGAUAUGGUACAGAAACUGUACCAGAAGGUCUUAUUAAUU [Omei SS(NG) 3 AV1] (Eterna round: R96, puzzle: Same State NG 3) | 128 | 246 | 306 |  |  | 
GGUCCAGCCUGAGCUGGACUAUAGUAUGUACAUGAGGAUCACCCAUGUCAUGUAUAAGUAUGUUGUUUGUCUUGAAA [Sensorship 4 - Jieux - Sensor for hsa-mir-208a] (puzzle: Sensor for hsa-mir-208a) |  |  |  | 23.6 | 20.1 | 24.2
UUGCGCUGUCGAGAGGAUAUGCGGUGUUGGACAUGAGGAUCACCCAUGUUUGCGAUAGCUUUACGGUAGAAGGCUCUUCAGCUGC [salish99_ss2_r3_099] (puzzle: Same State 2) |  |  |  |  | 45.8 | 
GCAUGGUUACAUGCUAUACAUGAGGAUCACCCAUGUGAUGGGAAGGAUAUGUCCUCAAUUAGUGGACAGAAGGUCCAAACAUUU [Fiskers NG3ss - 1] (Eterna round: R96, puzzle: Same State NG 3) | 136 | 234 | 939 |  |  | 
UUAUCUCAGACAUGAGGAUCACCCAUGUGGUUUUGACUUAGACAGGAUAUAGUAGUAUCGAAAUACUAGAAGGGUCAUUUUAUU [JR_SSNG3_Sub022] (Eterna round: R96, puzzle: Same State NG 3) | 91.3 | 99.5 | 125 |  |  | 
GUUACAUGAGGAUCACCCAUGUAUGUGUGGGAGUAAGUGUCUUAGGAUAUCUGUGAUUUAAUUUAAGAGAAGGAAGAUUGUUGU [JMF's solution 32] (Eterna round: R96, puzzle: Same State NG 3) | 126 | 71.6 | 96.1 |  |  | 
AUAAGGCAAGCUUUUUUCUCGUAGUAUAAACAUGAGGAUCACCCAUGUGCCUACCCUGGAUCUUUGGAUCGCAGAAA [Ravebiat] (puzzle: Sensor for hsa-mir-208a) |  |  |  | 22.1 | 15.7 | 28.3
GCUCGAUGAAAGUCCUACAUGAGGAUCACCCAUGUACGUGGGCAGGAUAUCUACAUGCAGAGUGUAGAGAAGGGCCCAUCGAGC [SameState NG3 #60] (Eterna round: R96, puzzle: Same State NG 3) | 18.6 | 22.6 | 34.9 |  |  | 
ACAUGAGACAUAGGAUAUCUUGUACCUACAUGUGACAUGAGGAUCACCCAUGUGGUAAGUAUGAGAGAGAAGGAUGAGAUAUGU [Equivalence 48 - Jieux - Same State NG 2] (Eterna round: R96, puzzle: Same State NG 2) | 17.5 | 17.9 | 20.6 |  |  | 
UCGGGCGUACUUGCUGACAUGAGGAUCACCCAUGUAAAUGGGAAGGAUAUGGUACCGUUUCGGUACCAGAAGGUCCUGGGUGCU [salish99_SSNG3_r04_309] (Eterna round: R96, puzzle: Same State NG 3) | 2270 | 674 | 3840 |  |  | 
AUAACACUGGCAGGAUAUGGGAAAGGAAGUGUACCAGAAGGGCCAGAACGGCGAUGGACAUGAGGAUCACCCAUGUCUUAGCCU [PowerStrip SSNG 1.4] (Eterna round: R96, puzzle: Same State NG 1) | 12.7 | 11.4 | 13.9 |  |  | 
AGCUAUUACGAAGGAUAUUCUGACAUGAGGAUCACCCAUGUCUUCAUGAUUUAUUGUGAUCACAUGAAGAAGGUUGUACUAACA [SameState NG2 #25] (Eterna round: R96, puzzle: Same State NG 2) | 106 | 130 | 93.1 |  |  | 
GCUAGGAUAUGCAGAGGAUCACCCUGUAGAAGGAGCAUUAGCUAGGAUAUGCAGAGGAUCACCCUGUAGAAGGAGCACUACUCU [pwkr ssNG3 DX 2xF5 +2xFMN.1] (Eterna round: R96, puzzle: Same State NG 3) | 445 | 205 | 248 |  |  | 
ACAUGAGACCUAGGAUAUUUUGUACCUACAUGUGACAUGAGGAUCACCCAUGUGGUAAGUAUGAGAAAGAAGGAGGAGAUAUGU [Equivalence 21 - Jieux - Same State NG 2] (Eterna round: R96, puzzle: Same State NG 2) | 18.1 | 30.1 | 36.7 |  |  | 
GCCGGCUGGUGAGGAUAUGGCGCCUUAUUGGUGCCAGAAGGCAUGUCAAUUGACAUGAGGAUCACCCAUGUGUUGUCGUUGGCG [salish99_SSNG1_r04_610] (Eterna round: R96, puzzle: Same State NG 1) | 695 | 357 | 353 |  |  | 
AUUGCUAUCACAGGAUAUCAUGCGGAAAUCGCGUGAGAAGGGUGGACUCUGUCAUUCACGGAGGACAUGAGGAUCACCCAUGUC [SS NG10LRO17] (Eterna round: R96, puzzle: Same State NG 1) | 612 | 18.4 | 36.3 |  |  | 
CGAUGAUACUUAGGAAGAAGAGUUGAAGUACAUGAGGAUCACCCAUGUCAGAGCUUUUUGCUCGUCAUGAACAGGAA [JR_SHM208a_Sub006] (puzzle: Sensor for hsa-mir-208a) |  |  |  | 47.9 | 27.7 | 52.9
GUGUGUUGCGGGCAGGAUAUGUACUUGAGUACAUGAGGAUCACCCAUGUGCGGGUGUUUCACCCGACAGAAGGGCCUAUCGCGAC [JL-ss2-3.25 ViennaUCT mod] (puzzle: Same State 2) |  |  |  | 145 | 136 | 664
GGUAUUAACACAGGAUAUGCUUACGAAACGUAAGCAGAAGGGUGGACAUGAGGAUCACCCAUGUUUGUACCAGGGCGUGAGCCC [JL SSNG1 1.71] (Eterna round: R96, puzzle: Same State NG 1) | 68.5 | 271 | 652 |  |  | 
AAUUAAGAUCUAGGAUAUCACGUCGAAUAGACGUGAGAAGGAGAUCAUAACAUGAGGAUCACCCAUGUAUUACAUGAAUUAAUU [SSNG1/6-B1] (Eterna round: R96, puzzle: Same State NG 1) | 28 | 21.6 | 28.4 |  |  | 
